Residue numbers refer to the chain shown, from its start. Names and notes keep the numbering of the source.
T1: FcγRIIb extracellular domain with C-terminal His tag (human, UniProt P31994 43-217)
T1 construct: extracellular domain; For crystals it was expressed with kifunensine and trimmed with Endo F1; also called FcgRIIb; FcγRIIb extracellular region
T1 sequence (looked up): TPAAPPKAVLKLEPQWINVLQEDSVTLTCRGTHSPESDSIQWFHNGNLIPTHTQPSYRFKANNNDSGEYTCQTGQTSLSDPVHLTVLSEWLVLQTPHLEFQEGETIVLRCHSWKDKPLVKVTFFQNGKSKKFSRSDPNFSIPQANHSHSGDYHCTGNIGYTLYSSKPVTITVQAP

T2: FcγRIIa type H extracellular domain with C-terminal His tag (human, UniProt P12318 34-217)
T2 construct: extracellular domain; also called FcgRIIaH; FcγRIIa H
T2 sequence (looked up): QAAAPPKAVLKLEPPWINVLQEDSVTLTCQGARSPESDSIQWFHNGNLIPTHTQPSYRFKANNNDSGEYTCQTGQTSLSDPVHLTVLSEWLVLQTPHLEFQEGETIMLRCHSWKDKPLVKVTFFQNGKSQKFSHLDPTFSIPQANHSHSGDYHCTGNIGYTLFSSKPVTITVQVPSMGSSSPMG

T3: FcγRIIb extracellular domain with C-terminal His tag (human, UniProt P31994 43-217)
T3 construct: extracellular domain; also called FcgRIIb
T3 sequence (looked up): T1 sequence (looked up)

T4: FcγRIIa type H extracellular domain with C-terminal His tag (human, UniProt P12318 34-217)
T4 construct: extracellular domain; also called FcgRIIaH; FcγRIIa H
T4 sequence (looked up): T2 sequence (looked up)

T5: FcγRIIb extracellular domain with C-terminal His tag (human, UniProt P31994 43-217)
T5 construct: extracellular domain; For crystallography it was expressed with kifunensine and trimmed with Endo F1; also called FcgRIIb; FcγRIIb extracellular region; not shown: His tag attached to the C terminus
T5 sequence (looked up): T1 sequence (looked up)

T6: FcγRIIa type R extracellular domain with C-terminal His tag (human, UniProt P12318 34-217)
T6 chain: T2 sequence (looked up) with H134R

B1: B3 variant of GpH7-B3/GpL16-k0 with Pro at position 238 (EU numbering) substituted with Asp (antibody, human IgG1, kappa)
heavy: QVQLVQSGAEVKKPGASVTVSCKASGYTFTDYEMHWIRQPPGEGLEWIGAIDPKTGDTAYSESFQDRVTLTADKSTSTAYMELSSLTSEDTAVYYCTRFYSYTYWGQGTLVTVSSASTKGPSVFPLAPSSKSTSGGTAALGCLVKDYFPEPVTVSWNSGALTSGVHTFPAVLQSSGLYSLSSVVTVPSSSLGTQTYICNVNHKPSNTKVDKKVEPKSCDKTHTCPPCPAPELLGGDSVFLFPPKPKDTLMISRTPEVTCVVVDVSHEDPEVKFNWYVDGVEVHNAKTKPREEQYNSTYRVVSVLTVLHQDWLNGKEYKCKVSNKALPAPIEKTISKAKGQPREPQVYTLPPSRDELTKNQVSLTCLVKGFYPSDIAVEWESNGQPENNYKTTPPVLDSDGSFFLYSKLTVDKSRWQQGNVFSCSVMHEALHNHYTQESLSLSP
light: DIVMTQSPLSLPVTPGEPASISCQASESLVHSNRNTYLHWYLQKPGQSPQLLIYKVSNRFSGVPDRFSGSGSGTDFTLKISRVEAEDVGVYYCSQNTHVPPTFGQGTKVEIERTVAAPSVFIFPPSDEQLKSGTASVVCLLNNFYPREAKVQWKVDNALQSGNSQESVTEQDSKDSTYSLSSTLTLSKADYEKHKVYACEVTHQGLSSPVTKSFNRGEC
notes: also called mutation A
B2: IL6R-BP478/IL6R-L (antibody, human IgG4 S228P, kappa)
heavy: QVQLQESGPGLVKPSETLSLTCAVSGHSISHDHAWSWVRQPPGEGLEWIGFISYSGITNYNPSLQGRVTISRDNSKNTLYLQMNSLRAEDTAVYYCARSLARTTAMDYWGEGTLVTVSSASTKGPSVFPLAPCSRSTSESTAALGCLVKDYFPEPVTVSWNSGALTSGVHTFPAVLQSSGLYSLSSVVTVPSSSLGTKTYTCNVDHKPSNTKVDKRVESKYGPPCPPCPAPDLLGDDSVFLFPPKPKDTLMISRTPEVTCVVVDVSDEDGEVKFNWYVDGVEVHNAKTKPREEQDNSTYRVVSVLTVLHQDWLNGKEYKCKVSNKALPRPIEKTISKAKGQPREPQVYTLPPSRDELTKNQVSLTCLVKGFYPSDIAVEWESNGQPENNYKTTPPVLDSDGSFFLYSKLTVDKSRWQQGNVFSCSVMHEALHNHYTQESLSLSP
light: not shown
B3: IL6R-2B253/IL6R-L (antibody, human IgG1, kappa)
heavy: QVQLQESGPGLVKPSETLSLTCAVSGHSISHDHAWSWVRQPPGEGLEWIGFISYSGITNYNPSLQGRVTISRDNSKNTLYLQMNSLRAEDTAVYYCARSLARTTAMDYWGEGTLVTVSSASTKGPSVFPLAPSSKSTSGGTAALGCLVKDYFPEPVTVSWNSGALTSGVHTFPAVLQSSGLYSLSSVVTVPSSSLGTQTYICNVNHKPSNTKVDKKVEPKSCDKTHTCPPCPAPDLLGGDSVFLFPPKPKDTLMISRTPEVTCVVVDVSHEDPEVKFNWYVDGVEVHNAKTKPREEQYNSTYRVVSVLTVLHQDWLNGKEYKCKMSNKALPAPIEKTISKAKGQPREPQVYTLPPSRDELTKNQVSLTCLVKGFYPSDIAVEWESNGQPENNYKTTPPVLDSDGSFFLYSKLTVDKSRWQQGNVFSCSVMHEALHNHYTQESLSLSP
light: not shown
B4: IL6R-BP568/IL6R-L (antibody, human IgG1, kappa)
heavy: B3 heavy with V266I, S269A, H270E, P273G, M325V
light: not shown
notes: Anti-human IL-6R IgG1; alterations introduced into IL6R-B3 (G1d with K439E)
B5: IL6R-BP473/IL6R-L (antibody, human IgG1, kappa)
heavy: B3 heavy with G239D, H270D, P273G, Y298D, M325V, A329G, A332R
light: not shown
B6: IL6R-BP471/IL6R-L (antibody, human IgG1, kappa)
heavy: B3 heavy with G239D, H270D, P273G, Y298D, M325V, A332R, P333S
light: not shown
B7: IL6R-BP564/IL6R-L (antibody, human IgG1, kappa)
heavy: B3 heavy with D235E, G239D, H270E, P273G, E274D, Y298D, M325V, A332R
light: not shown
notes: as for B4
B8: IL6R-BP567/IL6R-L (antibody, human IgG1, kappa)
heavy: B3 heavy with V266I, S269A, H270E, P273G, Y298D, M325V
light: not shown
notes: as for B4
B9: IL6R-BP477/IL6R-L (antibody, human IgG1, kappa)
heavy: B3 heavy with G239D, H270D, P273G, Y298D, M325V, A329G, A332R, P333S
light: not shown
B10: IL6R-BP209/IL6R-L (antibody, human IgG1, kappa)
heavy: B3 heavy with D235E, G239D, H270D, P273G, M325V, K328A, A332R
light: not shown
B11: IL6R-BP213/IL6R-L (antibody, human IgG1, kappa)
heavy: B3 heavy with H270D, P273G, M325V, A332R
light: not shown
B12: IL6R-BP562/IL6R-L (antibody, human IgG1, kappa)
heavy: B3 heavy with D235E, G239D, H270D, P273G, E274D, Y298D, M325V, A332R
light: not shown
notes: as for B4
B13: IL6R-BP203/IL6R-L (antibody, human IgG1, kappa)
heavy: B3 heavy with D235E, G239D, P273G, M325V, A332R
light: not shown
B14: IL6R-BP560/IL6R-L (antibody, human IgG1, kappa)
heavy: B3 heavy with D235E, S269G, H270E, P273G, Y298D, M325V, A332R
light: not shown
notes: as for B4
B15: IL6R-BP561/IL6R-L (antibody, human IgG1, kappa)
heavy: B3 heavy with G239D, H270D, P273G, E274D, Y298D, M325V, A332R
light: not shown
notes: as for B4

What was measured:
[1] = target: T1, FcγRIIb extracellular domain with …; assay: SPR (Biacore), relative amount of binding
[2] = target: T7, FcγRIIIa type V extracellular domain with C-terminal His tag (human, UniProt P08637 17-208); assay: SPR (Biacore)
T7 construct: extracellular domain; Allotype V158 (type V); also called FcgRIIIaV; FcγRIIIaV
T7 sequence (P08637 17-208 F176V): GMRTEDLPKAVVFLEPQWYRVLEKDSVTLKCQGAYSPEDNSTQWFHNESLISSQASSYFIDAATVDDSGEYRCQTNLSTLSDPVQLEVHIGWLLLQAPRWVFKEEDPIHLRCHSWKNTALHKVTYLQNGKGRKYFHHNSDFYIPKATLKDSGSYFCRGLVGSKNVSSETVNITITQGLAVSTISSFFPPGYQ

[3] = target: T8, FcγRIa extracellular domain with C-terminal His tag (human, UniProt P12314 16-292); assay: SPR (Biacore)
T8 construct: Whole entry named; also called FcgRIa; CD64A
T8 sequence (P12314 16-292): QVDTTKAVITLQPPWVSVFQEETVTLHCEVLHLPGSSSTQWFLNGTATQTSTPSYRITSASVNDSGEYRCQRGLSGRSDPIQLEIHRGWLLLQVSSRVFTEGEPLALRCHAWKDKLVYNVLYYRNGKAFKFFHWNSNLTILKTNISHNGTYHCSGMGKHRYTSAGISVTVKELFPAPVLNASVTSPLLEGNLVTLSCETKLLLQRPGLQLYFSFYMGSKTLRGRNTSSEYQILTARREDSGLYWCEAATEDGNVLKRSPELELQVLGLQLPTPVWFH

[4] = target: T2, FcγRIIa type H extracellular domain …; assay: SPR (Biacore)
[5] = target: T1, FcγRIIb extracellular domain with …; assay: SPR (Biacore)
[6] = target: T3, FcγRIIb extracellular domain with …; assay: SPR, captured antibody, FcgR analyte
Description: (§1) Relative binding activities were calculated for the results of analyzing interactions with the respective FcγRs according to the following method.

[7] = target: T4, FcγRIIa type H extracellular domain …; assay: SPR, captured antibody, FcgR analyte
Description: as §1

[8] = target: T9, FcγRIa extracellular domain with C-terminal His tag (human, UniProt P12314 16-292); assay: SPR, captured antibody, FcgR analyte
T9 construct: also called FcgRIa
T9 sequence (P12314 16-292): as above
Description: as §1

[9] = target: T10, FcγRIIIa type V extracellular domain with C-terminal His tag (human, UniProt P08637 17-208); assay: SPR, captured antibody, FcgR analyte
T10 construct: extracellular domain; also called FcgRIIIaV; FcγRIIIaV
T10 sequence (P08637 17-208 F176V): as the sequence (P08637 17-208 F176V) above
Description: as §1

[10] = target: T5, FcγRIIb extracellular domain with …; assay: SPR; KD for FcγRIIaH divided by KD for FcγRIIb
[11] = target: T6, FcγRIIa type R extracellular domain …; assay: SPR (Biacore), antibody captured, FcγR as analyte
[12] = target: T11, FcγRIa extracellular domain with C-terminal His tag (human, UniProt P12314 16-292); assay: SPR (Biacore), antibody captured, FcγR as analyte
T11 construct: also called FcgRIa; not shown: His tag attached to the C terminus
T11 sequence (P12314 16-292): as the sequence (P12314 16-292) above

[13] = target: T5, FcγRIIb extracellular domain with …; assay: SPR (Biacore), antibody captured, FcγR as analyte
[14] = target: T5, FcγRIIb extracellular domain with …; assay: SPR; KD for FcγRIIaR divided by KD for FcγRIIb
[15] = target: T6, FcγRIIa type R extracellular domain …; assay: SPR; KD of IL6R-B3/IL6R-L divided by KD of the variant
[16] = target: T5, FcγRIIb extracellular domain with …; assay: as above

Binder | KD(IIaH)/KD(IIb) [10] | Kd [11] [nM] | Kd [12] [nM] | Kd [13] [nM] | KD(IIaR)/KD(IIb) [14] | KD(IIaR) of the parent polypeptide/KD(IIaR) of the altered polypeptide [15] | KD(IIb) of the parent polypeptide/KD(IIb) of the altered polypeptide [16] | other results
B1 |  |  |  |  |  |  |  | binding result [1]: binds
B2 |  |  |  |  |  |  |  | binding result [2]: binds; binding result [3]: binds; binding result [4]: binds; fold increase of binding against IL6R-BP230/IL6R-L [5]: 1.1 fold
B3 |  |  |  |  |  |  |  | relative binding activity [6]: 156 relative (IL6R-BF648/IL6R-L = 100); relative binding activity [7]: 207 relative (IL6R-BF648/IL6R-L = 100); relative binding activity [8]: 155 relative (IL6R-BF648/IL6R-L = 100); relative binding activity [9]: 126 relative (IL6R-BF648/IL6R-L = 100)
B4 | 748 | 680 | 0.19 | 15 | 46.1 | 1.6 | 211 | 
B5 |  |  |  |  |  |  |  | binding result [2]: binds; binding result [3]: binds; binding result [4]: binds; fold increase of binding against IL6R-BP230/IL6R-L [5]: 1.2 times
B6 |  |  |  |  |  |  |  | binding result [2]: binds; binding result [3]: binds; binding result [4]: binds
B7 | 454 | 580 | 31 | 22 | 26.2 | 1.9 | 141 | 
B8 | 1230 | 890 | 0.21 | 14 | 64.4 | 1.2 | 225 | 
B9 |  |  |  |  |  |  |  | binding result [2]: binds; binding result [3]: binds; binding result [4]: binds
B10 |  |  |  |  |  |  |  | relative binding activity [6]: 186 relative (IL6R-BF648/IL6R-L = 100); relative binding activity [7]: 267 relative (IL6R-BF648/IL6R-L = 100); relative binding activity [8]: 68 relative (IL6R-BF648/IL6R-L = 100); relative binding activity [9]: 153 relative (IL6R-BF648/IL6R-L = 100)
B11 |  |  |  |  |  |  |  | relative binding activity [6]: 169 relative (IL6R-BF648/IL6R-L = 100); relative binding activity [7]: 123 relative (IL6R-BF648/IL6R-L = 100); relative binding activity [8]: 118 relative (IL6R-BF648/IL6R-L = 100); relative binding activity [9]: 100 relative (IL6R-BF648/IL6R-L = 100)
B12 | 466 | 680 | 25 | 24 | 29 | 1.6 | 131 | 
B13 |  |  |  |  |  |  |  | relative binding activity [6]: 185 relative (IL6R-BF648/IL6R-L = 100); relative binding activity [7]: 255 relative (IL6R-BF648/IL6R-L = 100); relative binding activity [8]: 35 relative (IL6R-BF648/IL6R-L = 100); relative binding activity [9]: 88 relative (IL6R-BF648/IL6R-L = 100)
B14 | 168 | 4200 | 5.6 | 180 | 22.8 | 0.3 | 16.8 | 
B15 |  | 510 | 9.4 | 18 |  |  |  | 
